Reference: patent US20220312749A1 (BIOCYTOGEN PHARMACEUTICALS BEIJING, published 2022)

Legend:
Assay in all cases: inferred by the filing from p-STAT5 flow cytometry on humanized mouse splenocytes
mouse IL2RG = target: T1, mouse IL2RG (mouse, UniProt P34902 23-369)
T1 construct: whole, on cells; also called CD132; common gamma chain
T1 sequence (looked up): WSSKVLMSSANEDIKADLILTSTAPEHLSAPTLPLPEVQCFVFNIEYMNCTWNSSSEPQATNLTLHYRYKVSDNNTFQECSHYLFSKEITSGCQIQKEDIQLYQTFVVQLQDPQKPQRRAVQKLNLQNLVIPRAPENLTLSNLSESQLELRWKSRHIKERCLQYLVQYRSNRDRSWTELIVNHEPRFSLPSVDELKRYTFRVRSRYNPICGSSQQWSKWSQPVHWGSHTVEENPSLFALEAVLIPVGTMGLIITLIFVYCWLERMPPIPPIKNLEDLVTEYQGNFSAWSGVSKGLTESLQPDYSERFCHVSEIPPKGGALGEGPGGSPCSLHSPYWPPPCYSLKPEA
Procedure: (§1) p-STAT5 is a known downstream signal in the IL2/IL2RA-mediated signaling pathway. Thus, the level of p-STAT5 in the IL2RA gene humanized mice can be detected to verify whether the IL2/IL2RA signaling pathway is functional in the humanized mice. Spleen cells from 14-week old wild-type C57BL/6 mice and IL2RA gene humanized homozygous mice were isolated (5×10⁵ cells/well, 4 wells each) and incubated in a 37° C. incubator for 30 minutes. […] Then, the stimulated cells were stained by APC Rat Anti-Mouse CD3 Molecular Complex, permeabilized, and stained by Phospho-Stat5 (Tyr694) (D47E7) XP® Rabbit mAb and Anti-rabbit IgG (H+L), F(ab′)2 Fragment (Alexa Fluor® 488 Conjugate), followed by flow cytometry analysis.

[1] = target: T2, Mouse recombinant interleukin 2 (mIL2) (mouse, UniProt P04351 21-169)
T2 construct: Bought reagent; also called recombinant mouse IL2; mouse IL2
T2 sequence (looked up): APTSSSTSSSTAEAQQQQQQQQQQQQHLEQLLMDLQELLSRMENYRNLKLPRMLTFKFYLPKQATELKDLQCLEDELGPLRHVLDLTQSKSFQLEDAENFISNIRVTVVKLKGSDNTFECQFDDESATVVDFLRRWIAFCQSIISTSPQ
Procedure: as §1

mouse IL2RB = target: T3, mouse IL2RB (mouse, UniProt P16297 27-539)
T3 construct: whole, on cells; also called CD122
T3 sequence (looked up): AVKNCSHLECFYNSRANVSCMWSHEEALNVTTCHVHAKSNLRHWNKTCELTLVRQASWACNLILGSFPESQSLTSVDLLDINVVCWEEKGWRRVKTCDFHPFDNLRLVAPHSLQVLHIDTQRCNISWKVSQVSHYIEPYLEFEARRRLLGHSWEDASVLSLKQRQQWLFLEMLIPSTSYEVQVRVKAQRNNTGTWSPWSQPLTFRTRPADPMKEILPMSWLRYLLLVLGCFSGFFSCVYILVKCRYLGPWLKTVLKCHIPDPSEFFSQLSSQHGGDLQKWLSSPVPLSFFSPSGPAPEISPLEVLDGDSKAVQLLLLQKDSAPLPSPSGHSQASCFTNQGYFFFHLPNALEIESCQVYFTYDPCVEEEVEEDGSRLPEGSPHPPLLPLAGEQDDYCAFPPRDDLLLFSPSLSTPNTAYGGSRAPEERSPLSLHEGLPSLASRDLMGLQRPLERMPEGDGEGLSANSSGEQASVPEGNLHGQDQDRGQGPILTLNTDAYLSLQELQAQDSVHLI
Procedure: as §1

binding result (mouse IL2RG): binds
binding result [1]: binds
binding result (mouse IL2RB): binds
B1: humanized IL2RA protein (chimeric human/mouse IL2RA expressed by B-hIL2RA mice) (receptor)
chain: ELCDDDPPEIPHATFKAMAYKEGTMLNCECKRGFRRIKSGSLYMLCTGNSSHSSWDNQCQCTSSATRNTTKQVTPQPEEQKERKTTEMQSPMQPVDQASLPGHCREPPPWENEATERIYHFVVGQMVYYQCVQGYRALHRGPAESVCKMTHGKTRWTQPQLICTGEMETSQFPGEEKPQASPEGRPESETSCLVTTTDFQIQTEMAATMETSIFTTEYKVAVASCLFLLISILLLSGLTWQHRWRKSRRTI
notes: also called chimeric IL2RA; engineered mouse IL2RA after humanization
